Measurements: the supplement of paper PMC7877785
± gives the uncertainty stated by the source.

Assay: self-splicing fitness, log relative to wild type (ln ratio); higher = more splicing; Tetrahymena group I intron in knt gene, E. coli kanamycin selection, DiMSum; sequences stand for … in CUCUCU…GGAGGGAAAAGUUAUCAGGCAUGCACCUGGUAGCUAGUCUUUAAACCAAUAGAUUGCAUCGGUUUAAAAGGCAAGACCGUCAAAUUGCGGGAAAGGGGUCAACAGCCGUUCAGUACCAAGUCUCAGGGGAAACUUUGAGAUGGCCUUGCAAAGGGUAUGGUAAUAAGCUGACGGACAUGGUCCUAACCACGCAGCCAAGUCCUAAGUCAACAGAUCUUCUGUUGAUAUGGAUGCAGUUCACAGACUAAAUGUCGGUCGGGGAAGAUGUAUUCUUCUCAUAAGAUAUAGUCGGACCUCUCCUUAAUGGGAGCUAGCGGAUGAAGUGAUGCAACACUGGAGCCGCUGGGAACUAAUUUGUAUGCGAAAGUAUAUUGAUUAGUUUUGGAGUACUCGUGGUCG
Outline: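 Fitness was computed with DiMSum as the error-weighted combination of replicate fold changes, kanamycin versus none, each normalised to wild type. The library randomised all eight intron nucleotides of the P1ex region, with the intron placed in the knt kanamycin-resistance gene on pET-22b(+) in E. coli BL21(DE3). Six replicate transformations were grown overnight at 37°C or 30°C on LB agar with or without 25 μg/mL kanamycin, plus 100 μg/mL carbenicillin, 50 μM IPTG and 0.2% rhamnose. Pooled colonies were amplicon-sequenced on an Illumina HiSeq 2500.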

Sequence: AUGGAGCAAUAUUACGUGUU
- self-splicing fitness (ln) (30 °C): -3.69 ± 0.15
- self-splicing fitness (ln) (37 °C): -3.73 ± 0.24

Sequence: AUGUAGCAAUAUUACGACAG
- self-splicing fitness (ln) (30 °C): 0.106 ± 0.081
- self-splicing fitness (ln) (37 °C): 0.358 ± 0.095

Sequence: AUGUAGCAAUAUUACGACAU
- self-splicing fitness (ln) (30 °C): -1.39 ± 0.014
- self-splicing fitness (ln) (37 °C): -0.557 ± 0.033

Sequence: AUGUAGCAAUAUUACGACGC
- self-splicing fitness (ln) (30 °C): -0.952 ± 0.12
- self-splicing fitness (ln) (37 °C): 0.119 ± 0.082

Sequence: AUGUAGCAAUAUUACGAUUC
- self-splicing fitness (ln) (30 °C): -2.52 ± 0.31
- self-splicing fitness (ln) (37 °C): -1.12 ± 0.33

Sequence: AUGUAGCAAUAUUACGCCCC
- self-splicing fitness (ln) (30 °C): -0.236 ± 0.22
- self-splicing fitness (ln) (37 °C): -0.186 ± 0.3

Sequence: AUGUAGCAAUAUUACGCUGA
- self-splicing fitness (ln) (30 °C): -1.93 ± 0.15
- self-splicing fitness (ln) (37 °C): -1.29 ± 0.18

Sequence: AUGUAGCAAUAUUACGGAAU
- self-splicing fitness (ln) (30 °C): -1.46 ± 0.082
- self-splicing fitness (ln) (37 °C): -0.789 ± 0.11

Sequence: AUGUAGCAAUAUUACGGAGA
- self-splicing fitness (ln) (37 °C): -2.06 ± 0.38

Sequence: AUGUAGCAAUAUUACGGAGC
- self-splicing fitness (ln) (30 °C): -4.16 ± 0.16
- self-splicing fitness (ln) (37 °C): -3.02 ± 0.15

Sequence: AUGUAGCAAUAUUACGGGGG
- self-splicing fitness (ln) (30 °C): -3.28 ± 0.27
- self-splicing fitness (ln) (37 °C): -2.47 ± 0.37

Sequence: AUGUAGCAAUAUUACGGGUA
- self-splicing fitness (ln) (30 °C): -2.63 ± 0.24
- self-splicing fitness (ln) (37 °C): -0.0625 ± 0.14

Sequence: AUGUAGCAAUAUUACGGUAC
- self-splicing fitness (ln) (30 °C): -3.47 ± 0.38
- self-splicing fitness (ln) (37 °C): -1.89 ± 0.3

Sequence: AUGUAGCAAUAUUACGGUUU
- self-splicing fitness (ln) (30 °C): -0.83 ± 0.085
- self-splicing fitness (ln) (37 °C): -0.694 ± 0.1

Sequence: AUGUAGCAAUAUUACGUAAC
- self-splicing fitness (ln) (30 °C): -2.96 ± 0.17
- self-splicing fitness (ln) (37 °C): -1.54 ± 0.16

Sequence: AUGUAGCAAUAUUACGUACG
- self-splicing fitness (ln) (30 °C): -1.41 ± 0.1
- self-splicing fitness (ln) (37 °C): -0.212 ± 0.13

Sequence: AUGUAGCAAUAUUACGUGAA
- self-splicing fitness (ln) (30 °C): -2.3 ± 0.12
- self-splicing fitness (ln) (37 °C): -1.22 ± 0.14

Sequence: AUGUAGCAAUAUUACGUGCC
- self-splicing fitness (ln) (30 °C): -1.65 ± 0.22
- self-splicing fitness (ln) (37 °C): -0.677 ± 0.2

Sequence: AUGUAGCAAUAUUACGUGGG
- self-splicing fitness (ln) (37 °C): -3.13 ± 0.21

Sequence: AUGUAGCAAUAUUACGUUCA
- self-splicing fitness (ln) (30 °C): -0.72 ± 0.075
- self-splicing fitness (ln) (37 °C): -0.276 ± 0.089

Sequence: AUGUAGCAAUAUUACGUUCG
- self-splicing fitness (ln) (30 °C): -0.997 ± 0.095
- self-splicing fitness (ln) (37 °C): -0.356 ± 0.12

Sequence: AUUAAGCAAUAUUACGAAGC
- self-splicing fitness (ln) (30 °C): -3.3 ± 0.25
- self-splicing fitness (ln) (37 °C): -2.52 ± 0.31

Sequence: AUUAAGCAAUAUUACGAAUG
- self-splicing fitness (ln) (30 °C): -2.82 ± 0.2
- self-splicing fitness (ln) (37 °C): -0.206 ± 0.2

Sequence: AUUAAGCAAUAUUACGACCC
- self-splicing fitness (ln) (30 °C): -1.2 ± 0.35

Sequence: AUUAAGCAAUAUUACGAGGA
- self-splicing fitness (ln) (30 °C): -3.01 ± 0.28
- self-splicing fitness (ln) (37 °C): -0.871 ± 0.19

Sequence: AUUAAGCAAUAUUACGAUCA
- self-splicing fitness (ln) (30 °C): -1.58 ± 0.17
- self-splicing fitness (ln) (37 °C): -0.409 ± 0.14

Sequence: AUUAAGCAAUAUUACGAUGU
- self-splicing fitness (ln) (30 °C): -0.608 ± 0.07
- self-splicing fitness (ln) (37 °C): -0.0076 ± 0.084

Sequence: AUUAAGCAAUAUUACGCCCG
- self-splicing fitness (ln) (30 °C): -1.13 ± 0.22
- self-splicing fitness (ln) (37 °C): 0.13 ± 0.33

Sequence: AUUAAGCAAUAUUACGCGAA
- self-splicing fitness (ln) (30 °C): -1.32 ± 0.11
- self-splicing fitness (ln) (37 °C): -0.882 ± 0.13

Sequence: AUUAAGCAAUAUUACGCGGG
- self-splicing fitness (ln) (30 °C): -2.61 ± 0.22
- self-splicing fitness (ln) (37 °C): -1.72 ± 0.17

Sequence: AUUAAGCAAUAUUACGCGUA
- self-splicing fitness (ln) (30 °C): -1.27 ± 0.14
- self-splicing fitness (ln) (37 °C): -0.834 ± 0.16

Sequence: AUUAAGCAAUAUUACGCUUC
- self-splicing fitness (ln) (30 °C): -3.05 ± 0.19
- self-splicing fitness (ln) (37 °C): -2.03 ± 0.18

Sequence: AUUAAGCAAUAUUACGCUUG
- self-splicing fitness (ln) (30 °C): -1.87 ± 0.11
- self-splicing fitness (ln) (37 °C): -0.856 ± 0.14

Sequence: AUUAAGCAAUAUUACGGAGC
- self-splicing fitness (ln) (30 °C): -2.62 ± 0.34
- self-splicing fitness (ln) (37 °C): -2.15 ± 0.31

Sequence: AUUAAGCAAUAUUACGGAUG
- self-splicing fitness (ln) (30 °C): -2.15 ± 0.14
- self-splicing fitness (ln) (37 °C): -2.02 ± 0.22

Sequence: AUUAAGCAAUAUUACGGCCG
- self-splicing fitness (ln) (30 °C): -0.768 ± 0.12
- self-splicing fitness (ln) (37 °C): 0.0891 ± 0.15

Sequence: AUUAAGCAAUAUUACGGGAU
- self-splicing fitness (ln) (30 °C): -2.07 ± 0.15
- self-splicing fitness (ln) (37 °C): -0.652 ± 0.12

Sequence: AUUAAGCAAUAUUACGGGCG
- self-splicing fitness (ln) (30 °C): -0.789 ± 0.085
- self-splicing fitness (ln) (37 °C): -0.228 ± 0.11

Sequence: AUUAAGCAAUAUUACGGGGA
- self-splicing fitness (ln) (30 °C): -3.62 ± 0.38
- self-splicing fitness (ln) (37 °C): -1.41 ± 0.18
